Source: the supplement of paper PMC10567573

B1: TRAF3IP2 (parent)
chain: KEHVPTWLQNTHVYSWPKNKKNIL
B2: NFE2L1 (parent)
chain: TLDGYGIHPKSIDLDNYFTARRLL

Variants of: B1
Test: protein stability index of a GFP-peptide fusion (GPS, HEK-293T) (PSI 1-6); higher = more stable
Settings: c terminus: a fixed tail appended
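Further: lentivirally expressed fusions sorted by FACS into six bins by GFP to DsRed ratio, PSI derived from sequencing read proportions per bin multiplied by bin number.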

Protein stability index of substitutions, site by site:
W16: F 2.7; Y 3; Q 3.36; R 3.9; S 3.08; A 3.35
V13: K 3.2; D 3.88; A 2.5; I 2.51; C 2.49; H 3.78; R 3; F 2.65; M 2.88; W 2.46; T 2.66; Q 2.31; P 3.07; N 2.11; E 2.52; L 2.44; Y 2.62; S 2.75
T11: H 2.38; F 2.53; K 2.57; W 2.3; A 2.67; Y 2.36; N 3.08; V 2.52; D 2.52; Q 3.04; C 2.28; E 2.83; R 2.54; P 2.67; L 2.44; S 2.88; I 2.55; G 2.64; M 2.91
P17: Y 2.03; F 2.18; N 1.95; E 2.23; D 2.71; I 2.1; W 2.1; K 2.31; H 2.21; C 2.36; Q 2.95; G 2.17; V 1.98; T 2.29; L 1.85; A 2.22; S 2.81
K20: Q 2.25; S 2.64; R 2.29; F 1.59; M 1.58; T 2.96; A 1.94; I 3.38; N 2.02; L 1.74; C 1.89; P 2.72; G 2.18; H 2.21; E 2.54; Y 1.81; W 2.07; D 2.31; V 1.99
K21: S 2.24; M 1.95; R 2.05; N 1.93; W 1.97; T 2.65; Q 2.27; F 1.8; C 2.3; I 2.12; Y 1.83; V 2.03; A 2.08; L 2.18; P 2.79; G 2.31; E 2.68; H 2.17; D 2.73

Variants of: B2
Test: as above
Settings: c terminus: a fixed tail appended

Protein stability index, by site and new letter:
L2: K 2.19; D 2.15; R 1.92; C 2.75; G 1.86; T 2.23; S 1.7; M 2.04; N 2.06; P 2.68; Y 1.74; A 1.58; V 1.74; F 1.97; I 2.61; E 2.05; W 2.37; Q 1.66; H 1.92
D3: S 1.71; G 1.65; P 1.62; H 1.25; W 1.47; T 1.61; V 1.62; R 2.33; M 2.07; C 1.77; Y 2.25; E 2.14; A 2.61; I 2.06; K 2.34; Q 1.79; F 3.12; L 2.58; N 2.33
T1: W 3.41; D 1.92; R 1.66; E 1.54; N 1.61; V 1.55; F 1.3; C 1.92; I 1.36; G 1.46; M 1.77; A 2.49; H 1.69; K 1.52; Y 2.32; L 1.57; S 1.82; Q 1.99; P 2.37
G4: L 1.27; M 2.09; C 1.43; H 1.62; P 1.63; A 1.73; E 1.47; D 2.57; K 1.53; N 2.03; F 1.46; I 1.65
